assay: soluble on expression in E. coli; label from the status in PepcDB or PDB records

| Sequence | soluble on expression in E. coli |
| --- | --- |
| MRKLKMMLCVMMLPLVVVGCTSKQSVSQCVKPPPPPAWIMQPPPDWQTPLNGIISPSGNDWLEHHHHHH | not soluble |
| MRKLWPLALLLAACGAQDVGAGLDPLRLTATSLPPAYLGEPYSASLAAEGGVRPYSFTLDGKLPEGLSFQGGRLFGVPKEKGSFPLLLTVEDAAKNSRAQRLTLTVSDPPPPRLALVLPPAQVEGPFLLLARVEGREAVGFQMEVRLADLEPDLAGLKALSPAHLLDYDPATRLLRLDMAFAKPVKDREAFRFLLTPQKPLVPRLSPKVVFYDKEGKPLGQPLPRGKPFAELLRLAQAWGREGKALKEDLDGDGKVGEADLRLLAQGYFPKPETPSPEVPGGGEGQASGEEQAP | soluble |
| MRKMKSLYLAIQQHESRRWSPVAKVTKNGGVYRLVYTKGAWEVPGFSGFARMEDLYQEYRSAEIFPILKNRTLPRSRPEYQNYILWLGLSPEEHDELDELARSGGIRATDQIELIPAPERKEDGSFEAFFFVRGISYIPGTADIDLKIGDRLFVMKDFQNEQDSAALLLRTGDPVSVVGYAPRYYSHDLSRLAELCPPQDLLVTVERLNNNAPAAYKVLCKVVAPWPAGFDFFGSHVFDEVPKAPVSLEHHHHHH | not soluble |
| MRKMMQNHQNTRFYFSASLILFNDKEMGKRSNYHHLVAFGGFFKALPDDGDLLTRFVTVEKLKKLPHCKFPFFPVKKPSLSPKMQPSYDADDFMRRGFFGSFIGFRKRSSSKPGELYAKNVTYSQIFSRHLID | soluble |
| MRKPIEHTADIAYEISGNSYEELLEEARNILLEEEGIVLDTEEKEKMYPLEETEDAFFDTVNDWILEISKGWAPWRIKREGNELKVTFRKIRKKEGTEIKALTYHLLKFERDGDVLKTKVVFDT | not soluble |
| MRKQFLIAHRGYSTIAPENTHLAFAAAQLFGFDGLWMEVQLTKDKQIVVTNLDNYKVGNKTHKLSDINLVNLKKINLAKQFKVNVQEQTILTLKEVLMEFLTPFRFLLLFIKGEEEQQNQVLVEQLAQLLEGFELAKEKLILLSSHFSTIKYLNEKLKSFKTSFVFNSKKQLVHLTKDEITQNCRFLAPNDSFYHKNCAELQSYGLPIILWVIKGLLRYQFYENDRFVKFQIAAQLY | soluble |
| MRKSRLSRYKQNKLIELFVAGVTARTATEPDSIVYTDCYRRYDVLDAGEFSHFRINHSTHFAERQNHINGIGNFWNRAKRHLRKFDGIPKEHFEPYLKECERRFNNSEIKVLVPFLEHHHHHH | not soluble |
| MRKSVFVLVFLMASVLFSVELKICYLNEDLLPIVKVTEGRDNPVLEIFEALSSPPEGLKTFVPEGVLRAYFFVGDYLILDFYGEKLKGMNFDSERYFLHQVLYTTFLNVKGVNNVYIIIDGKKRDVLAKHVDIRFSFPREVWEKWPIRLEHHHHHH | not soluble |
| MRKVTAAVMASTLAFSFLSHAAEVVTSDNWHPGDGATQRSAQNHMFDGISLTEHQRQQMRDLMQQARHEQPPVNVSEMETMHRLVTAEKFDESAVRAQAEKMAQEQVARQVEMARVRNQMYRLLTPEQQAVLNEKHQQRMEQLRDVAQWQKSSSLKLLSSSNSRSQLEHHHHHH | not soluble |
| MRKYEQKQLRNHDILTQHYEEVYRQLPEFKSLDDSISILSVQYGKRLLNGDQKAISSLKEELAILRASKQELLRSSGFPADYLEPVYDCPNCKDTGYIGNQKCHCFKKAIIDLLYEQSNLKEILKKENFSNFALDYYSTNFIDPKTGRSSRQVIEDALRICRNFVTSFGTDFQNLFLYGDVGVGKTFLSNCIAKELMDKEYSVLYFSASKFFSSLAKHAFDKQDVDAQNMFELIYNCDCLIIDDLGTEYTNNFIASQFFTCINERLLNSRSTIISTNLSLDTLADLYTERSFSRITSNYIMLKLIGDDIRIKKKLKNREEN | not soluble |
| MRLAVLIDADNAKADAISDLLAEVSKFGVATVKRAYGDWTTTNLQGWKKQLHKYAIQPMQQFSYTRGKNSTDASMIIDGMDLLYTGNFDGFCIVSSDCDFTRLATRFREAGLSVYGFGEKKTPEPFVAACDRFIFTEILGKGETQEKPAATGKADESAASKELLKLLRKAVAAVSGEDGWASLSNLGSHISKIRPSFDSRNYGYSKLSTLVKNLDIFETRMVPSADKLHTDVFLRLKDGKLEHHHHHH | not soluble |
| MRLDLENLVETPSNEIAGFYEGLVEALPSLEGHYCSPGCRGGFLMRVREGTMMGHIVEHVALELQELAGMHVGFGRTRETATPGVYQVVIEYINEEAGRYAGRAAVRLCQSIVDRGRYPKAELEQDIQDLKDFSREASLGPSTEAIIKEAEKRGIPWMPLAARFLIQLGYGVNQKRMQATMTDNTGILGVELACDKEATKRILAANGVPVPRGTVINFLDDLEESIEYVGGYPIVIKPLDGNHGRGITIDIRSWDEAEAAYEAARQVSRSIIVERYYVGRDHRVLVVDGKVVAVAERVPAHVIGNGRSSIAELITETNQDPNRGEGHDNVLTKIELDRTSYQLLERQGYTLNSVPPKGTICYLRATANLSTGGSAVDRTDEIHPENVWLAQRVVRIIGLDIAGLDIVTTDISRPLRDVDGVIVEVNAAPGFRMHVAPSQGIPRNVAGAVMDMLFPNEKPSRIPILTVTGTNGKTTTTRLLAHIYRQTKKVVGYTTTDGTYIGDYLVEAGDNTGPQSAHVILQDPTVEVAVLESARGGILRSGLGFESANVGVVLNVAADHLGIGDIDTIEQLANLKSVVAEAVFPDGYAVLNADDHRVAAMSEKTKANIAYFTMNPDSDLVRKHIQKGGVAAVYENGYLSIVKGDWTHRIERAENIPLTMGGKAPFMIANALAASLAAFVQNVTIEQIRPGLRTFRASVSQTPGRMNLFNLGKYHALVDYAHNPASYEALGSFVRNWTTGQRIGVIGGPGDRRDEDFVTLGKLSADIFDYILVKEDDDTRGRLRGSASDLIIQGITQVKPNSRFESILDETQAINKALDMAPDGSLVVILPESVNRAIKLIKVRGVQEEIQPQNSTTTINDSQNGVAPSSVVNTLL | not soluble |
| MRLDVEQTSKLDRVRADYNVHYWSQGFYGIDDQGEMYVSPRSDNAHQIQLSKIVKQLEERQLNVPVLVRFPQILHQRVHSICDAFNQAIEEYQYPNKYLLVYPIKVNQQREVVDEILASQAQLETKQLGLEAGSKPELLAVLAMAQHASSVIVCNGYKDREYIRLALIGEKLGHKVFIVLEKMSELDLVLREAKSLGVTPRLGIRIRLASQGAGKWQASGGEKSKFGLSASQVLNVISRLKKENQLDTLQLVHFHLGSQMANIRDVRNGVNESARFYCELRTLGANITYFDVGGGLAIDYDGTRSQSSNSMNYGLVEYARNIVNTVGDVCKDYKQPMPVIISESGRSLTAHHAVLISNVIGTETYKPETVTEPEEDFPLLLNNMWRSWLNLHNGTDARALIEIYNDTQSDLAEVHSQFATGVLTLEHRAWAEQTSLRIYYELNRLMSTKNRFHRPILDELSERLADKFFVNFSLFQSLPDSWGIDQVFPVLPLSGLQNAADRRAVMLDITCDSDGAIDAYVDGQGIESTLPVPAWNEDEPYLMGFFLVGAYQEILGDMHNLFGDTHSVVVNVGDQGEINIDFINEGDTVEDMMRYVHIDVDQIRKNYHSLVSQRVDQEEQQQILAELEQGLSGYTYLEDFLEHHHHHH | soluble |
| MRLEFSIYRYNPDVDDAPRMQDYTLEADEGRDMMLLDALIQLKEKDPSLSFRRSCREGVCGSDGLNMNGKNGLACITPISALNQPGKKIVIRPLPGLPVIRDLVVDMGQFYAQYEKIKPYLLNNGQNPPAREHLQMPEQREKLDGLYECILCACCSTSCPSFWWNPDKFIGPAGLLAAYRFLIDSRDTETDSRLDGLSDAFSVFRCHSIMNCVSVCPKGLNPTRAIGHIKSMLLQRNA | soluble |
| MRLLPLVAAATAAFLVVACSSPTPPRGVTVVNNFDAKRYLGTWYEIARFDHRFERGLEKVTATYSLRDDGGLNVINKGYNPDRGMWQQSEGKAYFTGAPTRAALKVSFFGPFYGGYNVIALDREYRHALVCGPDRDYLWILSRTPTISDEVKQEMLAVATREGFDVSKFIWVQQPGS | soluble |
| MRLLVAFAVIYFISISPVCAENTASTINIPTPAIESPLASKSLLLDISLIGQEKLVTVGQHGHILLSNDGKKWQQANVPVQVTLTNVFFLNEQLGWAVGHDATILHSQDGGLNWQVQQYLPLLEKPLFDIYFKNPQQGIAVGAYGQVFRTNDGGSTWQNEFHQEILLADDVEYLNELKAEDEAAYLDEITFILPHFNRLVQDGGSLFLLGETGLLAKSDDFGLTWQQFDNFYQGSFFSLARTKTGNVLVAGLRGHVFRSLNHGSQWDEVPTNTTALLNDIVFANDERIFILGNNGMLLISTDDGESFSKIPQQDGKTLIAGVWFKGQLIAVSDVGIKVVDLSQELEHHHHHH | not soluble |
| MRLLVIIILVAFFLCTTAELMEKRSSMGGSAFGGIDRIPLSYLRKYYRQKTMKRDDNELLDFSPQNSQLGYRSISFWPLY | not soluble |
| MRLLVQNVHKRFGKLEALKGVSLELGAGEILGLLGPNGAGKTTLIKVVLGLLLPDGGEVVLEEGGARRRPQGHEFGVLLEGSRNLYVNLSLLVNALYFGGIRGLPPKEVRPRFEAWLERFGLKDRLHAPLASLSRGMQQKAALALALALKPRFLLLDEPTLGLDPVSRREFEGILLELKKEGWGILLTSHDLEVVERVSDRVAFLHRGEVRRQGPTRVLLREWAGEGYRVRLAEPKAEALLQALGPGWSAEGPEVLFFLGPWEALREALGAFPVEVLEVSRGTPSLEALFLHLFGEARPSPSA | soluble |
| MRLMKSYKNLKEEVWDTNRCSGCGACVAVCPVNNLYFREESPVKFECDECSCIIVPADIVEHPISAEFCKTVVYDVPCGACYDACPRIKKSAIPKPKGLGNILKAVRAKASIEIKNAQNGGVVTAILANAFDEGLIDGAIVMMDDKWTLEPESYLALSKEDVLKSAGSKYLWKGPILKALKTAVMEKKLKKLAVVGTPCVINAIYQILSSDNDLLKPFREAIRLKIALFCFETYDYSKMIKKLNEDGIEPWEVKKMDIESGKLKITLINGNTVEYKLKDVESAMRNGCKVCGDFTGLTSDISVGNVGTEKGYSTVLIRNKWGEGFFKRAVYNGYITYDENVDLEAVEKLVELKKKRVKKDLEHHHHHH | soluble |
| MRLNHKQGTAGEDAALAFLQSQGCTLLARNWHCAYGEIDLIVKNGGMILFVEVKYRKNQRFGGAAYSISPSKLLKLQRSVEYYLQQNRLTNVPCRLDAVLIEGNRPPEWIKNITG | soluble |
| MRLRHKPYAMDRINEYSHIVIGNPEERAGSWKEVFGNEQPIHIEVGTGRGRFMYDMAKANPHINYIGIEKFTSVVVDALDKLIEEELPNLKLINKDAEDLTVFFAKGEIDRVYLNFSDPWPKKRHTKRRLTYKTFLRNYEEVLVEGGEIHFKTDNQGLFEYSLMSMAEYGMLLTYLSLDLHNSDFEGNIMTEYEEKFSSKGHRIYRVEAKYRTEPMQ | not soluble |
| MRLSDYNTPLSGMLAAQMGLQTTKQNLSNIHTPGYVRQMVNYESAGGSKGYAPEQRIGYGVQTLGVDRITDEVKTKQYNDQMSQFSYYAYMNSTLSRVESMVGTTGKNSLSSLMDGFFNAFREVAKNPEQSNYYDTLIAETGKFTSQVSRLAKNLDTVEAQTTEDIEAHVNEFNRLAASLAEANKKIGQAGTQVPNQLLDERDRIMTEMSKYADIEVSYEATNPNIASVRMNGVLTVNGQDTYPLQLQKDKKPMSVQISGTDIPLSGGTILSAIDTKAKITNYKDNLNEFVNSLKKQVNNTMKKELFVGEDAKKLELNPDFIKDISKMKISAETANNLAAITDKGYKDGLTYKQALDQFLVGVASDKSSVNAYQNIHKDLLEGIQQEKMSIEGVNMEEEMVNLMAFQKYFVANSKAITTMNEVFDSLFSIIR | not soluble |
